Laboratory results from patent US20040170955A1 (University of Texas, published 2004).
Ends that are not written are not given here.

Tests used:
[1] = target: T1, GST-β3cyto (GST fusion protein of the β3 integrin cytoplasmic domain) (UniProt P05106 742-788); experiment: phosphorylated phage binding, β3 colonies / BSA colonies
T1 construct: domain: cytoplasmic domain; Recombinant GST fusion coated on microtiter wells; also called β3-GST; β3 cytoplasmic domain fusion protein; not shown: glutathione S-transferase (GST) fusion partner
T1 sequence (P05106 742-788): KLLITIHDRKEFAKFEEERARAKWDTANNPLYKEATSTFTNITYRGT
Method: (§1) Phosphorylation of peptide libraries with src family protein kinases (Fyn, c-Src, Lyn, and Syc) and serine/threonine kinases such as a MAP kinase were performed as described previously (Schmitz et al., 1996; Dente et al., 1997; Gram et al., 1997). Briefly, phage particles were collected from culture supernatants by double precipitation with 20% polyethylene glycol 8000 in 2.5 M NaCl. Particles were dissolved at 10¹² particles/ml. Purified phage (10 μl) were incubated for 3 hours at room temperature with different concentrations (35 to 3,500 units) of protein kinases in a reaction buffer volume of 50 μl. The reaction mixtures were transferred to tubes containing 10 μg of agarose-conjugated anti-P-Tyr, anti-P-Ser, or anti-P-Thr monoclonal antibodies to select phage displaying phosphorylated peptides. Bound phage were eluted by washing the column with 0.3 ml of elution buffer (0.1 M NaCl/glycine/1 mg/ml BSA, pH 2.35). The eluates were neutralized with 2 M Tris-base and incubated with 2 ml of a mid-log bacteria culture.
(§2) Amino acid sequences of the phagemid encoded peptides were deduced from nucleotide sequences.

[2] = target: T1, GST-β3cyto (GST fusion protein of the …); experiment: phosphorylated phage binding, β3 colonies / GST colonies
Method: as §1, §2

[3] = target: T1, GST-β3cyto (GST fusion protein of the …); experiment: phage binding to β3, colonies with Fyn-phosphorylated phage / unphosphorylated phage
Method: as §1, §2

## RAILYRLAN (not fully specified (residue 5); also: displayed on phage, whole phage tested) [Fyn-phosphorylated phage displaying RAILYRLAN (SEQ ID NO:116)]
[1]
  β3 or β5/BSA: 20 ratio
[2]
  β3 or β5/GST: 1.3 ratio
[3]
  Phos/Unphos: 2.8 ratio
